The source of these data is the Immune Epitope Database (IEDB).

In one assay the target is HLA-C*12:03. Put plainly: IEDB peptide-MHC binding, purified MHC/direct/fluorescence; filed as Kd, often an IC50 or EC50 that approximates it; ≥ and ≤ were set here for values at or beyond the usual limits of such assays.
The next assay deals with HLA-C*06:02. The description is as above.
The target of a further assay is HLA-B*58:01. Described as above.
Another assay has as its target HLA-C*05:01. Described as above.
For a further assay, the target named is HLA-C*15:02. The assay is described as above.
The target of assay [1] is HLA-A*02:01. The description is as above.
The next assay deals with HLA-A*69:01. Described as above.
Another assay concerns the target HLA-B*48:01. Described as above. The conditions noted are these: source organism: West Nile virus.
For assay [2], the target named is HLA-A*03:01. The assay is described as follows: IEDB peptide-MHC binding, purified MHC/competitive/fluorescence; filed as Kd, often an IC50 or EC50 that approximates it; ≥ and ≤ were set here for values at or beyond the usual limits of such assays. The conditions noted are these: source organism: Salmonella enterica subsp. enterica serovar Choleraesuis str. SC-B67.

A further assay deals with HLA-A*24:03. The assay is described as above.
Another assay concerns the target HLA-B*46:01. Described as above. The conditions noted are these: source organism: Salmonella enterica subsp. enterica serovar Choleraesuis str. SC-B67.
In assay [3] the target is HLA-A*02:01. The description is as above.
Assay [4] deals with HLA-B*15:01. The description is as above. To be noted: source organism: Salmonella enterica subsp. enterica serovar Choleraesuis str. SC-B67.
The next assay concerns the target HLA-B*39:01. Described as above. To be noted: source organism: Salmonella enterica subsp. enterica serovar Choleraesuis str. SC-B67.
The target in assay [5] is HLA-B*15:17. Described as above. The conditions noted are these: source organism: Salmonella enterica subsp. enterica serovar Choleraesuis str. SC-B67.
The target in a further assay is HLA-B*27:03. The description is as above. To be noted: source organism: Salmonella enterica subsp. enterica serovar Choleraesuis str. SC-B67.
Assay [6] deals with HLA-B*57:01. The assay is described as above. To be noted: source organism: Salmonella enterica subsp. enterica serovar Choleraesuis str. SC-B67.
For another assay, the target named is HLA-B*18:01. The assay is described as above. The conditions noted are these: source organism: Salmonella enterica subsp. enterica serovar Choleraesuis str. SC-B67.
A further assay has as its target HLA-A*23:01. The description is as above. To be noted: source organism: Salmonella enterica subsp. enterica serovar Choleraesuis str. SC-B67.
Another assay concerns the target HLA-A*02:19. Described as above.
Assay [7] deals with HLA-A*26:01. The description is as above. To be noted: source organism: Salmonella enterica subsp. enterica serovar Choleraesuis str. SC-B67.
The next assay addresses HLA-A*29:02. Described as above. The conditions noted are these: source organism: Salmonella enterica subsp. enterica serovar Choleraesuis str. SC-B67.
The target of a further assay is HLA-A*01:01. Put plainly: IEDB peptide-MHC binding, purified MHC/direct/fluorescence; filed as Kd, often an IC50 or EC50 that approximates it; ≥ and ≤ were set here for values at or beyond the usual limits of such assays. The conditions noted are these: source organism: Rickettsia felis.
Assay [8] concerns the target HLA-A*03:01. The assay is described as above. To be noted: source organism: Rickettsia felis.
Assay [9] deals with HLA-B*15:01. Described as above. The conditions noted are these: source organism: Rickettsia prowazekii.
The target in a further assay is HLA-A*11:01. Described as above. The conditions noted are these: source organism: Rickettsia felis.
The target of assay [10] is HLA-B*15:17. The description is as above.
For another assay, the target named is HLA-B*08:01. The assay is described as above. To be noted: source organism: Rickettsia felis.
Another assay concerns the target HLA-B*35:01. Described as above. The conditions noted are these: source organism: Rickettsia prowazekii.
The next assay addresses HLA-B*07:02. Described as above. The conditions noted are these: source organism: Rickettsia felis.
The target in assay [11] is HLA-B*57:01. Described as above.
For another assay, the target named is HLA-B*27:05. Described as above. The conditions noted are these: source organism: Rickettsia felis.
The target of assay [12] is HLA-A*26:01. Described as above. To be noted: source organism: Rickettsia felis.
For another assay, the target named is HLA-B*40:01. The assay is described as above. The conditions noted are these: source organism: Rickettsia felis.
The next assay addresses HLA-A*31:01. Described as above. The conditions noted are these: source organism: Rickettsia felis.
In the next assay the target is HLA-B*83:01. Put plainly: IEDB peptide-MHC binding, purified MHC/competitive/fluorescence; filed as Kd, often an IC50 or EC50 that approximates it; ≥ and ≤ were set here for values at or beyond the usual limits of such assays. The conditions noted are these: source organism: Burkholderia mallei SAVP1.
In another assay the target is HLA-B*15:42. The assay is described as above. To be noted: source organism: Burkholderia mallei SAVP1.
Another assay concerns the target HLA-B*45:06. The description is as above. The conditions noted are these: source organism: Burkholderia mallei SAVP1.
The next assay has as its target HLA-A*02:12. The assay is described as above. To be noted: source organism: Burkholderia pseudomallei 668.
[13] abbreviates: source organism: Listeria monocytogenes EGD-e.
[14] abbreviates: source organism: Vibrio cholerae.
Setting [15] is: source organism: Salmonella enterica subsp. enterica serovar Choleraesuis str. SC-B67.
Where [16] appears, read: source organism: Rickettsia felis.
The mark [17] stands for this setting: source organism: Burkholderia thailandensis.
The mark [18] stands for this setting: source organism: Acinetobacter baylyi.

In the case of FTRDTGATL, the Kd with HLA-C*12:03 (source organism: Mycobacterium tuberculosis variant bovis BCG str. Pasteur 1173P2) was no more than 1 nM.
IRHNKDRKV registered a Kd in the assay with HLA-C*06:02 (source organism: Mus musculus) of 26 nM. In other words, the double-digit nanomolar range.
On to KAAETYHVF, for which the Kd is 22 nM with HLA-B*58:01 (source organism: Listeria monocytogenes), no less than 20000 nM with HLA-C*05:01 (setting [13]) and 36 nM with HLA-C*15:02 (setting [13]).
Consider KLTEEIIKL, for which the Kd in the assay with HLA-A*02:01 [1] (setting [14]) is 42.1 nM; with HLA-A*69:01 (setting [14]), 2210 nM; with HLA-C*15:02 (source organism: Vibrio cholerae MAK 757), no less than 20000 nM.
Consider MTIGMANLI, for which, in the assay with HLA-C*05:01 (source organism: Influenza A virus (A/California/04/2009(H1N1))), the equilibrium dissociation constant (Kd) is no less than 20000 nM.
On to RRSRRSLTV, for which the Kd in the assay with HLA-B*48:01 was no less than 20000 nM; with HLA-C*06:02 (source organism: West Nile virus) it was 36 nM.
GIALAVPCV: the Kd in the assay with HLA-A*03:01 [2] was no less than 20000 nM; in the assay with HLA-A*24:03 (setting [15]), no less than 20000 nM; with HLA-B*46:01 it was no less than 20000 nM; in the assay with HLA-A*02:01 [3] (setting [15]) it was 0.7 nM; with HLA-B*15:01 [4] it was no less than 20000 nM; with HLA-B*39:01, no less than 20000 nM. Besides, the Kd with HLA-B*15:17 [5] was no less than 20000 nM; with HLA-B*27:03, no less than 20000 nM; in the assay with HLA-B*57:01 [6], no less than 20000 nM; in the assay with HLA-B*18:01 it was no less than 20000 nM; with HLA-A*23:01, no less than 20000 nM; with HLA-A*02:19 (setting [15]), 1.8 nM. Besides, the Kd is no less than 20000 nM in the assay with HLA-A*26:01 [7] and 3000 nM with HLA-A*29:02.
As for GSFKEYVFW, the Kd in the assay with HLA-A*01:01 is no less than 20000 nM; with HLA-A*03:01 [8], no less than 20000 nM; with HLA-A*02:01 [1] (setting [16]), no less than 20000 nM; with HLA-B*15:01 [9], 5690 nM; in the assay with HLA-A*11:01 it was no less than 20000 nM; with HLA-B*15:17 [10] (setting [16]) it was 105 nM. Moreover, the Kd in the assay with HLA-B*08:01 is no less than 20000 nM; with HLA-B*58:01 (source organism: Rickettsia prowazekii), 7.81 nM; with HLA-B*35:01, 1900 nM; with HLA-B*07:02, no less than 20000 nM; with HLA-A*69:01 (setting [16]), no less than 20000 nM; with HLA-B*57:01 [11] (setting [16]) it was 167 nM. Further, the Kd in the assay with HLA-B*27:05, with HLA-A*26:01 [12], in the assay with HLA-B*40:01 and with HLA-A*31:01 was no less than 20000 nM each time.
Turning to VADEIAFGL, the Kd with HLA-C*05:01 (source organism: Escherichia coli E22) was no more than 1 nM.
Regarding MALATGLWW, the Kd in the assay with HLA-B*15:17 [10] (setting [17]) was 0.4 nM; in the assay with HLA-B*58:01 (setting [17]), 0.5 nM; in the assay with HLA-B*57:01 [11] (source organism: Burkholderia mallei ATCC 23344), 33 nM; in the assay with HLA-B*83:01, no less than 5000 nM; with HLA-B*15:42 it was no less than 5000 nM; in the assay with HLA-B*45:06, no less than 5000 nM.
For VSFICTTIL, the Kd in the assay with HLA-C*12:03 (source organism: Murid gammaherpesvirus 4) was 485 nM. That is a sub-micromolar value.
Sequence YYVMGGAFL had a Kd with HLA-A*24:03 (source organism: Bacillus anthracis str. A0488) of 0.3 nM. In other words, the sub-nanomolar range.
Take DLMLLSYSL: the Kd stood at 160 nM with HLA-A*02:01 [3] (setting [18]) and 14.1 nM in the assay with HLA-A*02:19 (setting [18]).
Regarding GIYGAVIPL, the Kd with HLA-A*02:01 [3] (source organism: Burkholderia pseudomallei 668) is no more than 0.1 nM; with HLA-A*02:12 it was 8.6 nM.

By Kd is commonly meant the concentration at which binding is half-saturated. A lower Kd goes with tighter binding.
